This experiment concerns the target human CEACAM5 on cells (human) (UniProt P06731). The experiment is described as follows: flow cytometry, hCEACAM5-B16F10 cells.

human CEACAM5 on cells (human), sequence (P06731 35-685 limits assumed): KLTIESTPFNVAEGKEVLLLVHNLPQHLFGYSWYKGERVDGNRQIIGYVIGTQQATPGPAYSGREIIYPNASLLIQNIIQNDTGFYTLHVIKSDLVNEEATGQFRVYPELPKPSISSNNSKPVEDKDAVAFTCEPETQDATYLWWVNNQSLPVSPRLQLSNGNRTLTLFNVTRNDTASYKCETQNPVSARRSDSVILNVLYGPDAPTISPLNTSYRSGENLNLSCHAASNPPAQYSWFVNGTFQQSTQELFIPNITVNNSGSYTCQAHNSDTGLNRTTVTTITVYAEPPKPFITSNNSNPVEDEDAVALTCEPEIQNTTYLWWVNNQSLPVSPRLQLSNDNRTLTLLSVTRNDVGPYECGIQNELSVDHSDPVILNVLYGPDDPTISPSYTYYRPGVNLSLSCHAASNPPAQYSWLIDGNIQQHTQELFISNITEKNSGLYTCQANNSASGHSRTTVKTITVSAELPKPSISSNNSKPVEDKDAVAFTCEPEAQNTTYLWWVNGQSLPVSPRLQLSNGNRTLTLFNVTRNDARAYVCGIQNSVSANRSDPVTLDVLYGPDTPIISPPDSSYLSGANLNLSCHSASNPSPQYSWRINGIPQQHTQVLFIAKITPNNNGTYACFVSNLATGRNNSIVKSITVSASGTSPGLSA

B1: mAB0621 mouse surrogate duobody TriNKET (bispecific antibody, part only; not given: NKG2D arm, mouse constant regions, V domains shown, part only)
VH: QVQLVQSGAEVKKPGASVKVSCKASGYTFTAYTIHWVRQAPGQCLEWMGYINPSSGYTEYNQKFKDRTTLTADTSISTAYMELSRLRSDDTAVYYCTREGGLLWFDYWGQGTLVTVSS
VL: DIVMTQSPDSLAVSLGERATINCKSSHSLLYGNFQNNYLAWYQQKPGQPPKLLIYWASTRESGVPDRFSGSGSGTDFTLTISSLQAEDVAVYYCQQYYSYPYTFGCGTKLEIK
On to B1, for which the EC50 was 21.8 nM.
